Experimental data as given in patent publication EP4386000A1 (Nanjing Novoacine Bio-Technology Co., Ltd., dated 2024).

T1: human CD25 (NP_000408.1) (Met 1-Cys 213) C-terminally fused with 6-histidine tag (human, UniProt P01589 22-213)
T1 construct: range 1-213; Expressed in CHO-K1 cells; also called human CD25-his
T1 sequence: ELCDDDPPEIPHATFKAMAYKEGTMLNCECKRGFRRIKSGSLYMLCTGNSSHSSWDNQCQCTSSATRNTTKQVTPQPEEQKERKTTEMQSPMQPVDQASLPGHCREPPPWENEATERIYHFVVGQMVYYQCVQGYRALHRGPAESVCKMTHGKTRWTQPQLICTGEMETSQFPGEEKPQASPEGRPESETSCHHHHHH

B1: humanized antibody 2046-111H1L1-m2 (antibody, human IgG1, kappa, V domains shown)
VH: EVQLQESGPGLVKPSQTLSLTCTVSGHSITSDYAWNWIRQPPGKGLEWIGYISYSGSTIYNPSLKSRVTISRDTSKNQFSLKLSSVTAADTAVYYCARWLLQNYYAMDYWGQGTLVTVSS
VL: EIVLTQSPGTLSLSPGERATLSCRSSQSLVHSNGNTYLHWYQQKPGQAPRLLIYKVSNRFSGIPDRFSGSGSGTDFTLTISRLEPEDFAVYYCSQSTHVPLTFGQGTKLEIKR
B2: humanized antibody 2046-36H1L1 (antibody, human IgG1, kappa, V domains shown)
VH: EIQLVQSGSELKKPGASVKVSCKASGYTFTTAGMQWVRQAPGQGLEWMGWINTHSGVPKYAEDFKGRFVFSLDTSVSTAYLQISSLKAEDTAVYYCASDYAFGYWGQGTLVTVSS
VL: DVVMTQSPLSLPVTLGQPASISCKSSQSLLYSNGKTYLYWLQQRPGQSPRRLIYLVSKLDSGVPDRFSGSGSGTDFTLKISRVEAEDLGVYYCVQGTHFPYTFGQGTKLEIKR
B3: humanized antibody 2047-10H2L2 (antibody, human IgG1, kappa, V domains shown)
VH: EVQLVQSGAEVKKPGATVKISCKGSGYTFTDYAMHWVQQAPGKGLEWMGVISTYSGNTNYNQKFKGRVTITVDKSTSTAYMELSSLRSEDTAVYYCARSYGNYPFDYWGQGTLVTVSS
VL: DIQMTQSPSSLSASVGDRVTITCKASQDITSYLSWFQQKPGKAPKTLIYRANRLVDGVPSRFSGSGSGQDYTLTISSLQPEDMATYYCLQYDEFPYTFGQGTKLEIKR
B4: humanized antibody 2047-3H1L2 (antibody, human IgG1, kappa, V domains shown)
VH: EVQLVQSGAEVKKPGATVKISCKTSGYTFTDYVISWVQQAPGKGLEWMGEIYPGSGSTYYNEKFKGRVTITADISTNTAYMELSSLRSEDTAVYYCASINFDYWGQGTLVTVSS
VL: EIVMTQSPATLSLSPGERATLSCRASQSISDYLHWYQQKPGQAPRLLIKYASQSISGIPARFSGSGSGSDFTLTISSLQPEDVAVYYCQSGHSFPYTFGQGTKLEIKR

Molecular target: T1, human CD25 (NP_000408.1) (Met 1-Cys …)
Test: SPR (BIAcore X100), human CD25-his captured by anti-histidine antibody, antibody as analyte, 1:1 model

Question: What does the source list for B1?
Answer: Kd: 6.35 nM; koff: 0.00414 s⁻¹; kon: 652000 M⁻¹ s⁻¹

Question: Which Kd does the source give for B2 here?
Answer: 0.994 nM

Question: What about the koff of the same binder?
Answer: 0.00394 s⁻¹

Question: What about the kon of the same binder?
Answer: 3.96e+06 M⁻¹ s⁻¹

Question: What does the source list for B3?
Answer: Kd: 4.46 nM; koff: 0.00205 s⁻¹; kon: 461000 M⁻¹ s⁻¹

Question: Which Kd does the source give for B4 here?
Answer: 1.43 nM

Question: What about the koff of the same binder?
Answer: 0.000498 s⁻¹

Question: What about the kon of the same binder?
Answer: 348000 M⁻¹ s⁻¹
